Source: article PMC12009414
Values joined by “and” are separate entries in the source; they are usually repeats but may differ in a detail not shown here. Identical values can stand only once.

Legend:
Experiment in all cases: cryo-EM structure
Details in all cases: remark: other sources report otherwise
[1] = target: T1, human DNA polymerase θ helicase domain (residues 1-894) (human), O75417
[2] = target: T1, human DNA polymerase θ helicase domain …; remark: listed apart in the source
[3] = target: T1, human DNA polymerase θ helicase domain …; remark: listed apart in the source

stoichiometry N [1]: 2
stoichiometry N [2]: 2 and 4
stoichiometry N [3]: 2
B1: human DNA polymerase θ helicase domain (residues 1-894), O75417 1-894 (domain or fragment)
chain: MNLLRRSGKRRRSESGSDSFSGSGGDSSASPQFLSGSVLSPPPGLGRCLKAAAAGECKPTVPDYERDKLLLANWGLPKAVLEKYHSFGVKKMFEWQAECLLLGQVLEGKNLVYSAPTSAGKTLVAELLILKRVLEMRKKALFILPFVSVAKEKKYYLQSLFQEVGIKVDGYMGSTSPSRHFSSLDIAVCTIERANGLINRLIEENKMDLLGMVVVDELHMLGDSHRGYLLELLLTKICYITRKSASCQADLASSLSNAVQIVGMSATLPNLELVASWLNAELYHTDFRPVPLLESVKVGNSIYDSSMKLVREFEPMLQVKGDEDHVVSLCYETICDNHSVLLFCPSKKWCEKLADIIAREFYNLHHQAEGLVKPSECPPVILEQKELLEVMDQLRRLPSGLDSVLQKTVPWGVAFHHAGLTFEERDIIEGAFRQGLIRVLAATSTLSSGVNLPARRVIIRTPIFGGRPLDILTYKQMVGRAGRKGVDTVGESILICKNSEKSKGIALLQGSLKPVRSCLQRREGEEVTGSMIRAILEIIVGGVASTSQDMHTYAACTFLAASMKEGKQGIQRNQESVQLGAIEACVMWLLENEFIQSTEASDGTEGKVYHPTHLGSATLSSSLSPADTLDIFADLQRAMKGFVLENDLHILYLVTPMFEDWTTIDWYRFFCLWEKLPTSMKRVAELVGVEEGFLARCVKGKVVARTERQHRQMAIHKRFFTSLVLLDLISEVPLREINQKYGCNRGQIQSLQQSAAVYAGMITVFSNRLGWHNMELLLSQFQKRLTFGIQRELCDLVRVSLLNAQRARVLYASGFHTVADLARANIVEVEVILKNAVPFKSARKAVDEEEEAVEERRNMRTIWVTGRKGLTEREAAALIVEEARMILQQDLVEM
